This note sets out measurements from the DeepSol protein solubility set.

The nature of this data set: soluble on expression in E. coli; label from the status in PepcDB or PDB records.
Consider “MNRNDAYHTLISEICALSLISEPERFYESANFKISDVDFTLHYQDRDEGRAILIYGDMGALPARNRDSALLALMDINFHMFSGAHSPAFSWNAQTGRVLLMGSIGLERATAEGVLLLMKSFADLAREWREHGFMGPVGAAGAPVNMPASQATTRDTPASSGRFQ”, for which the “soluble on expression in E. coli” value is recorded as “not soluble”.

Consider “MNRRDFLKTAGLTGIALGLPGCARSLPFGRDVFPDFGDDARPYLGLATSLREEHDYEARVEGTIPAGLRGTLYRNGPALFDRGGMRKRTLLDGDGMVQAFRFGDRGIRYANRFVRTRKFVEEEAAGRFLHPTWSTQAPGGIWTNVWPTERLLSQAGITVFPWRGRLYAFDESSFPYELDPDTLATVGETTFGLPRDLTTYSAHGKFDPVTGEWLHFGIRYGPRTFVHLTTFNADGTLRRHRALELPRAIYMHDWFVTERHVVFHLHPVEIAYWPFLLGIRSMAESLRWRPERGTILMVAERDGEAPPRLVETEACYLWHTFNAWEERGKITADFVGYRNPDHFISDDPVITAVMLGRRGTYSYPGEVMRYRIDPARGTAAREVLHQGSCEWPRIDERLRCRPHRTGYMLRCLPGEFFWSIVMGLDPVTGRTDEYSFGRGVYCTEPVFAPRPDTLAGGPGWLLVELYDSRTRTSSLAILDADRIADGPLALVRLTHHVPFSYHGWWQPASLEHHHHHH”, for which the “soluble on expression in E. coli” value is given as “not soluble”.

For “MNRRQFLGSAAAVSLASAASFARAHGHADYHHHHDMQPAAASAYTAVRQTAAHCLDAGQVCLTHCLSLLTQGDTSMSDCAVAVRQMLALCGAVHDLAAQNSPLTRDAAKVCLEACKQCAKACKEHSAHHAECKACYESCLDCIKECEKLAALEHHHHHH”, the “soluble on expression in E. coli” value was “soluble”.

As to “MNRWQRAWRHLCSTGWQARRQFPAAQLKRLERQIAESERAHRGQLRFVVESALDWRAAWRGMSARERALQWFGELRVWDTEDNTGVLVYLLLAERRIEIVADRGIHRLAPAGEWAGICADMQRAFAAGAHVEGLESGLRRIHALLLAHAPRNGEPFVNELPDQVVVRLEHHHHHH”, the “soluble on expression in E. coli” value was “not soluble”. As to “MNSLLAELNRLGVAHATTEDVFIFVDRLFQHFSFLFQAEESGPRRLELVASVFEHLTVECVNDILDACSHPDVNVAETSNTCRPCPSPVPSAPKTVSGAQTSCATPRAPVTLEHHHHHH”, the “soluble on expression in E. coli” value is reported as “not soluble”. In the case of “MNSVITQKVSSGVTLYADTKTGGFMNRTILVPIDISDSELTQRVISHVEAEAKIDDAEVHFLTVIPSLPYYASLGLAYSAELPAMDDLKAEAKSQLEEIIKKFKLPTDRVHVHVEEGSPKDRILELAKKIPAHMIIIASHRPDITTYLLGSNAAAVVRHAECSVLVVR”, the “soluble on expression in E. coli” value is given as “not soluble”. Consider “MNTDEYYMRLAMEEAKKAEQIGEVPIGAVIVQDGRVIARAHNLRETEQRAIAHAEILAIDEACRATGSWRLERATLYVTLEPCAMCAGAIVLSRIERVVFGAFDPKGGCAGTLMNLLQESRFNHQVKVVSGVLADECGSLLSQFFRRLREQKRNVGGSANENSVD”, for which the “soluble on expression in E. coli” value is reported as “not soluble”.

With “MNTDKQVYPLYYEAKNDKVRKRLGIKGGFYWAEAKKLSIAISRGAVAIDDAGYDEDDFKKPVRVNLPVVDDLPPEGVFDTEFCNRYEKGGEDGITMVFIASSPSVQDKPASTDNTNVNGEDMTEIEENMLLPVSGQELPIRWLAQHGSEKPVTHVSRDELQALHIARDEELPAVTALAVSHKTSLLDPLEIRDLHKLVRDTDRVFPNPGNSSLGLMTAFFEAYMDADYTDRGLLTKEWMKGNRVSRITRTASGANAGGGNLTDRGEGFVHDLTSLARDVATGVLARSMDVDIYNLHPAHAKRVEEIIAENKPPFSVFRDKFITMPGGMDYSRAIVVASVKEAPIGIEVIPAHVTEYLNKVLTETDHANPDPEIVDIACGRSSAPMPQRVTEEGKQDDEEKTQPSGAMADEQATAETMEPDATEHHQNTQPLDAQSQVNSVDEKYQELRAELHEARKNIPPKNPVDADKLLAALR”, the “soluble on expression in E. coli” value is given as “not soluble”. As to “MNTLIPISEQTVGQETVQTVNARDLHAFLEVKTSFKDWIIRRIQDCKFKEGYDFCSFLSESSGGRPSKEYHITLDMAKHLSMIERNDKGHEARQYFNFLFDNMSVLCLLSNQVPQKHLKYTAGRLPKQSLLRTLKALTHYMLVAYKWLVGCGYAIQYPRGESVTTDCVPCF”, the “soluble on expression in E. coli” value is given as “soluble”. For the sequence “MNTLPDTHVREASGCPSPITIWQTLLTRLLDQHYGLTLNDTPFADERVIEQHIEAGISLCDAVNFLVEKYALVRTDQPGFSAGAPSQLINSIDILRARRATGLMTRDNYRTVNNITRGKHPEAKQ”, the “soluble on expression in E. coli” value is “not soluble”.
